In IntAct's records for PubMed 21134644:

B1: Integrin beta-3 (Homo sapiens), P05106 (parent)
chain: MRARPRPRPLWATVLALGALAGVGVGGPNICTTRGVSSCQQCLAVSPMCAWCSDEALPLGSPRCDLKENLLKDNCAPESIEFPVSEARVLEDRPLSDKGSGDSSQVTQVSPQRIALRLRPDDSKNFSIQVRQVEDYPVDIYYLMDLSYSMKDDLWSIQNLGTKLATQMRKLTSNLRIGFGAFVDKPVSPYMYISPPEALENPCYDMKTTCLPMFGYKHVLTLTDQVTRFNEEVKKQSVSRNRDAPEGGFDAIMQATVCDEKIGWRNDASHLLVFTTDAKTHIALDGRLAGIVQPNDGQCHVGSDNHYSASTTMDYPSLGLMTEKLSQKNINLIFAVTENVVNLYQNYSELIPGTTVGVLSMDSSNVLQLIVDAYGKIRSKVELEVRDLPEELSLSFNATCLNNEVIPGLKSCMGLKIGDTVSFSIEAKVRGCPQEKEKSFTIKPVGFKDSLIVQVTFDCDCACQAQAEPNSHRCNNGNGTFECGVCRCGPGWLGSQCECSEEDYRPSQQDECSPREGQPVCSQRGECLCGQCVCHSSDFGKITGKYCECDDFSCVRYKGEMCSGHGQCSCGDCLCDSDWTGYYCNCTTRTDTCMSSNGLLCSGRGKCECGSCVCIQPGSYGDTCEKCPTCPDACTFKKECVECKKFDRGALHDENTCNRYCRDEIESVKELKDTGKDAVNCTYKNEDDCVVRFQYYEDSSGKSILYVVEEPECPKGPDILVVLLSVMGAILLIGLAALLIWKLLITIHDRKEFAKFEEERARAKWDTANNPLYKEATSTFTNITYRGT

Variants of: B1
Conditions: with tln1_mouse Tln1, P26039
Chain of tln1_mouse Tln1, P26039 (P26039 whole entry): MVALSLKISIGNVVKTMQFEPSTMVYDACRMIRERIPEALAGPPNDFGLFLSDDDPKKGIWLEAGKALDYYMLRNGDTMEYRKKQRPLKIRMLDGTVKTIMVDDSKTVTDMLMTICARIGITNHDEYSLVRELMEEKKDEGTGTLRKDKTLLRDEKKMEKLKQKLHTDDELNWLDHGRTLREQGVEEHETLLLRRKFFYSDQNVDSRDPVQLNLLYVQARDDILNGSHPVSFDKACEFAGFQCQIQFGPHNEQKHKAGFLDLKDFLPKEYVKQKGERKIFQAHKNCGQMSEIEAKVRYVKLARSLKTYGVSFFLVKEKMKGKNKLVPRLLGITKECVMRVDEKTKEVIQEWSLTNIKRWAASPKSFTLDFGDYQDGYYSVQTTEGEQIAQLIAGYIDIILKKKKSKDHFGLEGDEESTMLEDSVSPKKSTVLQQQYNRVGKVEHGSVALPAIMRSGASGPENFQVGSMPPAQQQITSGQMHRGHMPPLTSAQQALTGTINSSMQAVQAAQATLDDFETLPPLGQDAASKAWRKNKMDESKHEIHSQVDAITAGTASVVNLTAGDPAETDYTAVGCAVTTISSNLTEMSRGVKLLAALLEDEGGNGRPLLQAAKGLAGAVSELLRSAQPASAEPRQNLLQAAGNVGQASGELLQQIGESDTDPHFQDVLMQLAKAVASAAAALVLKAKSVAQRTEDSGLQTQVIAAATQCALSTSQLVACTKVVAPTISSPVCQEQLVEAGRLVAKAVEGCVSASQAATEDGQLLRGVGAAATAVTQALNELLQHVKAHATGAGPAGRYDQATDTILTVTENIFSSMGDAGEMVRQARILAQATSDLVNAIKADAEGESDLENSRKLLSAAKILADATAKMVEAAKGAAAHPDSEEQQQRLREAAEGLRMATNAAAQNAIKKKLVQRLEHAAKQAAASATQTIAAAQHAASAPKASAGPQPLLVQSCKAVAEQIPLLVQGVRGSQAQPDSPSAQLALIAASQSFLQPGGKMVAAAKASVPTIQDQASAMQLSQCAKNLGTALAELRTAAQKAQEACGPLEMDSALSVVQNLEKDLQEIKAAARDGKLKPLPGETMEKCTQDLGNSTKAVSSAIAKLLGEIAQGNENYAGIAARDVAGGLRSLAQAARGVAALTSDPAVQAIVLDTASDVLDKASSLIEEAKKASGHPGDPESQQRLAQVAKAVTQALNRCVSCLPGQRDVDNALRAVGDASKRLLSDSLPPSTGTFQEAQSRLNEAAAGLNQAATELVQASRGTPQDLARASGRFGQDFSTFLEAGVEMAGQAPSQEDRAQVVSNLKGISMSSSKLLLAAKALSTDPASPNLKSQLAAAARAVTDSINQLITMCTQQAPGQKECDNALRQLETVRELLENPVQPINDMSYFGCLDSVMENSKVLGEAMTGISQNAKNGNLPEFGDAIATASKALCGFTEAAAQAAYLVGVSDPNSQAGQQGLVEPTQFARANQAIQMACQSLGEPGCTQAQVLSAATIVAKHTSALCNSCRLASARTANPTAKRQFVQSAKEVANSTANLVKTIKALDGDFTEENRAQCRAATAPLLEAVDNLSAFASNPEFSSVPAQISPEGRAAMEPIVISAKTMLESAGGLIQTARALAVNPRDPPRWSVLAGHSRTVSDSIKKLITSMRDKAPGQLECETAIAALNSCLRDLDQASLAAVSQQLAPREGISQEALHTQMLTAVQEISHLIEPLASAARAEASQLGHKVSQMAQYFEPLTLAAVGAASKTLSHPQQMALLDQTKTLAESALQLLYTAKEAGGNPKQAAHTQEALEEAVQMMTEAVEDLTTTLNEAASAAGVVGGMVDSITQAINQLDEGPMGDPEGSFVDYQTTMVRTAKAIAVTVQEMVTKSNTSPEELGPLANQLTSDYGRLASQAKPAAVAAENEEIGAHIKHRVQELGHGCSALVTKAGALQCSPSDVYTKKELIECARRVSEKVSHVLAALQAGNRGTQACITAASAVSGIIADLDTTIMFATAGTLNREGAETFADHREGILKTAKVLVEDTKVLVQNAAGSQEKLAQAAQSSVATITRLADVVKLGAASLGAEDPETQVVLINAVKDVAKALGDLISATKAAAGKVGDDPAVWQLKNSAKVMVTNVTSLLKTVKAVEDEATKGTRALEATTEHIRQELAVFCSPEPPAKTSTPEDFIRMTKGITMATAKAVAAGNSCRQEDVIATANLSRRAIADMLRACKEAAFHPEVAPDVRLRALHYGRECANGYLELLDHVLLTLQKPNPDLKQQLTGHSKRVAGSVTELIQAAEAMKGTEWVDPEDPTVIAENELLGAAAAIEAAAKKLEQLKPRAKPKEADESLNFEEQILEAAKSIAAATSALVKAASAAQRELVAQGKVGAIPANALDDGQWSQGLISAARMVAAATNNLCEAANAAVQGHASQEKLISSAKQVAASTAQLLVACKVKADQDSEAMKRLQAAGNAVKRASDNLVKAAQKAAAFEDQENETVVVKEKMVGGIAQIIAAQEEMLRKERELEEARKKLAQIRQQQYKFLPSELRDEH

effect of a mutation on the interaction	Variant
disrupting interaction	W765A
decreasing interaction	Y773A
decreasing interaction	F753A;F756A
